In the experiment the target is T1, full length human Tau (not phosphorylated) (human, UniProt P10636 1-758).
T1 construct: Human Tau isoform F, 441 residues; also called full length tau; Tau protein
Kind of experiment: Western blot on recombinant Tau, all antibodies 1 ug/ml. Background: In western blotting, separated proteins are transferred to a membrane and probed.

Residue numbers refer to the chain shown, from its start.

Data on two molecules can be found in US20200223912A1 (Hoffmann-La Roche, published 2020).

T1 sequence (P10636 other isoform, or with tags, fused parts or gaps limits assumed): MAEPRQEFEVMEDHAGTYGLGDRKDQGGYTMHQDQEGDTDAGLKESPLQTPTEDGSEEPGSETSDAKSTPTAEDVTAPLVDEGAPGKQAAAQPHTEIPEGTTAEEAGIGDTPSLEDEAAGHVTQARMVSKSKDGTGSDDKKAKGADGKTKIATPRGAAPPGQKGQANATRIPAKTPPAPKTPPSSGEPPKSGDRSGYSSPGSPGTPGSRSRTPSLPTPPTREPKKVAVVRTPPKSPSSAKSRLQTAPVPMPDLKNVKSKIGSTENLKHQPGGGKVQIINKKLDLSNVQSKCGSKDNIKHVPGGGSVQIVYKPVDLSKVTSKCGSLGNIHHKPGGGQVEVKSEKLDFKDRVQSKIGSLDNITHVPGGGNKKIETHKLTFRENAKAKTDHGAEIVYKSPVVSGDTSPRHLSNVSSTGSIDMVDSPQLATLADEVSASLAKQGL

B1: VH32/VL21 (antibody, V domains shown)
VH: EVQVLESGGGLVQPGGSLRLSCAVSGFSLSSNAINWVRQAPGKGLEWVGYIAVSGNTYYASWAKGRFTISRDNSKNTVYLQMNSLRAEDTAVYYCGKSNIWGQGTLVTVSS
VL: AQVMTQSPSSLSASVGDRVTITCRSSQSVRTNKLAWFQQKPGQPPKRLIYSASTLDFGVPSRFSGSGSGTEFTLTISSLQPEDFATYYCLGYFDSSADIVAFGGGTKVEIK
As for B1, the binding result was “no binding (tested: 1 ug/ml)”.

B2: VH32/VL22 (antibody, V domains shown)
VH: B1 VH
VL: B1 VL with K33R, F57Y
On to B2, for which the binding result is “no binding (tested: 1 ug/ml)”.
